Experimental data: patent publication US20140363416

Legend:
[1] = test system: GST-ATF2 fusion protein (Cell Signaling)
[2] = biological target: His/TF-tagged-XBP1s (recombinant XBP1s fusion protein purified from E. coli) (UniProt O35426)

Substance: activated recombinant p38α MAPK (Cell Signaling)
- in vitro kinase assay, phosphorylation of the control substrate [1]: activated recombinant p38 MAPK is fully functional and phosphorylates ATF2
- in vitro kinase assay, immunoblotting with phospho-specific antibodies for p-XBP1s^Thr48 and p-XBP1s^Ser61 [2]: p38 MAPK directly phosphorylates XBP on Thr48 and Ser61 residues in the in vitro kinase assay
- in vitro kinase assay, incorporated 32P (phosphorylation) by autoradiography [2]: Incubation of XBP1s with activated recombinant p38 MAPK significantly increased phosphorylation of XBP1s
